# Test results taken from patent publication US20240182580A1.
# Legend:
# [1] = molecular target: CD74 on human tumour cell lines (human) (UniProt P04233); assay: flow cytometry on RPMI-6666 (HL) cells, one-site specific binding fit
# [2] = molecular target: CD74 on human tumour cell lines (human) (UniProt P04233); assay: flow cytometry on SU-DHL-6 (NHL) cells, one-site specific binding fit
# [3] = molecular target: CD74 on human tumour cell lines (human) (UniProt P04233); assay: flow cytometry on BDCM (AML) cells; Table 3 repeats Table 2
# [4] = molecular target: CD74 on human tumour cell lines (human) (UniProt P04233); assay: flow cytometry on JVM-13 (CLL) cells, geometric MFI, one-site specific binding fit
# [5] = molecular target: CD74 on human tumour cell lines (human) (UniProt P04233); assay: flow cytometry on JVM-13 (CLL) cells; Table 3 repeats Table 2; set-up: Bmax: unit not given here
# [6] = molecular target: CD74 on human tumour cell lines (human) (UniProt P04233); assay: flow cytometry on ARP-1 (MM) cells; Table 3 repeats Table 2
# [7] = molecular target: CD74 on human tumour cell lines (human) (UniProt P04233); assay: flow cytometry on SUP-B15 (ALL) cells, one-site specific binding fit
# [8] = molecular target: CD74 on human tumour cell lines (human) (UniProt P04233); assay: flow cytometry on BDCM (AML) cells, geometric MFI, one-site specific binding fit
# [9] = molecular target: CD74 on human tumour cell lines (human) (UniProt P04233); assay: flow cytometry on SUP-B15 (ALL) cells; Table 3 repeats Table 2; set-up: Bmax: unit not given here
# [10] = molecular target: CD74 on human tumour cell lines (human) (UniProt P04233); assay: flow cytometry on SU-DHL-6 (NHL) cells; Table 3 repeats Table 2
# [11] = molecular target: CD74 on human tumour cell lines (human) (UniProt P04233); assay: flow cytometry on ARD (MM) cells, one-site specific binding fit
# [12] = molecular target: CD74 on human tumour cell lines (human) (UniProt P04233); assay: flow cytometry on RPMI-8226 (MM) cells, one-site specific binding fit
# [13] = molecular target: CD74 on human tumour cell lines (human) (UniProt P04233); assay: flow cytometry on SUP-B15 (ALL) cells, geometric MFI, one-site specific binding fit
# [14] = molecular target: CD74 on human tumour cell lines (human) (UniProt P04233); assay: flow cytometry on RPMI-8226 (MM) cells; Table 3 repeats Table 2
# [15] = molecular target: CD74 on human tumour cell lines (human) (UniProt P04233); assay: flow cytometry on BDCM (AML) cells, one-site specific binding fit
# [16] = molecular target: CD74 on human tumour cell lines (human) (UniProt P04233); assay: flow cytometry on RPMI-6666 (HL) cells; Table 3 repeats Table 2
# [17] = molecular target: CD74 on human tumour cell lines (human) (UniProt P04233); assay: flow cytometry on JVM-13 (CLL) cells, one-site specific binding fit
# [18] = molecular target: CD74 on human tumour cell lines (human) (UniProt P04233); assay: flow cytometry on RPMI-8226 (MM) cells, geometric MFI, one-site specific binding fit
# [19] = molecular target: CD74 on human tumour cell lines (human) (UniProt P04233); assay: flow cytometry on ARD (MM) cells; Table 3 repeats Table 2
# [20] = molecular target: CD74 on human tumour cell lines (human) (UniProt P04233); assay: flow cytometry on SU-DHL-6 (NHL) cells, geometric MFI, one-site specific binding fit
# [21] = molecular target: CD74 on human tumour cell lines (human) (UniProt P04233); assay: flow cytometry on RPMI-6666 (HL) cells, geometric MFI, one-site specific binding fit
# [22] = molecular target: CD74 on human tumour cell lines (human) (UniProt P04233); assay: flow cytometry on ARP-1 (MM) cells, geometric MFI, one-site specific binding fit
# [23] = molecular target: CD74 on human tumour cell lines (human) (UniProt P04233); assay: flow cytometry on ARD (MM) cells, geometric MFI, one-site specific binding fit
binder,measurement,setting,value
"anti-CD74 antibody without conjugation (anti-CD74 IgG of Examples 2 and 3) (antibody, V domains shown) VH: QVQLVESGGGVVQPGRSLRLSCAASGFNFSDYGMHWVRQAPGKGLEWVAVIWYDGSISYYADSVKGRFTISRDNSKNTLYLQMNSLRAEDTAVYYCARGGTVEHGAVYGTDVWGQGTTVTVSS VL: DIQMTQSPSSVSASVGDRVTITCRASQGIGSWLAWYQQKPGKAPKLLIYAADRLQSGVPSRFSGSGSGTDFTLTISSLQPEDFATYYCQQYHTYPLTFGGGTKVEIK",Kd,[1],2.3 nM
same,Kd,[2],2 nM
same,Bmax,[3],3060
same,Kd,[3],4.5 nM
same,Bmax,[4],447
same,Bmax,[5],447
same,Kd,[5],2.5 nM
same,Bmax,[6],341
same,Kd,[7],3.5 nM
same,Bmax,[8],3060
same,Bmax,[9],680
same,Kd,[9],3.5 nM
same,Bmax,[10],1560
same,Kd,[10],2 nM
same,Kd,[11],2.6 nM
same,Kd,[12],3.6 nM
same,Bmax,[13],680
same,Bmax,[14],119
same,Kd,[14],3.6 nM
same,Kd,[15],4.5 nM
same,Bmax,[16],3880
same,Kd,[16],2.3 nM
same,Kd,[17],2.5 nM
same,Bmax,[18],119
same,Bmax,[19],190
same,Kd,[19],2.6 nM
same,Bmax,[20],1560
same,Bmax,[21],3880
same,Bmax,[22],341
same,Bmax,[23],190
